Source: the MegaScale stability set (Tsuboyama et al. 2023)

B1: HHH_rd1_0493 (parent)
chain: RDEDEKEKIKEALKRGNEDKAKEIAKRANVSPEEYERLRKEAE
B2: EHEE_rd4_0086 (parent)
chain: EIHIRTNGEEQARKVYKMLAKRNYDVKIEQHNGQWVVTAS

Variants of: B1
Assay: folding stability dG (cDNA display proteolysis); higher = more stable
Settings: PBS, room temperature

Q: For EDEDEKEKIKEALKRGNEDKAKEIAKRANVSPEEYERLRKEAE [R1E], which “folding stability dG” value is on record?
A: The value was 3.02 kcal/mol.

Q: Which “folding stability dG” value does the source give for DDEDEKEKIKEALKRGNEDKAKEIAKRANVSPEEYERLRKEAE [R1D] here?
A: The value was 3.13 kcal/mol.

Q: With HDEDEKEKIKEALKRGNEDKAKEIAKRANVSPEEYERLRKEAE [R1H] as the variant, how does the “folding stability dG” value read?
A: The value was 3.11 kcal/mol.

Q: For FDEDEKEKIKEALKRGNEDKAKEIAKRANVSPEEYERLRKEAE [R1F], which “folding stability dG” value is on record?
A: Its value is 3.01 kcal/mol.

Q: With ADEDEKEKIKEALKRGNEDKAKEIAKRANVSPEEYERLRKEAE [R1A] as the variant, how does the “folding stability dG” value read?
A: The value was 3.23 kcal/mol.

Q: Which “folding stability dG” value does the source give for IDEDEKEKIKEALKRGNEDKAKEIAKRANVSPEEYERLRKEAE [R1I] here?
A: The value was 3.2 kcal/mol.

Q: With KDEDEKEKIKEALKRGNEDKAKEIAKRANVSPEEYERLRKEAE [R1K] as the variant, how does the “folding stability dG” value read?
A: The value was 3.12 kcal/mol.

Q: For CDEDEKEKIKEALKRGNEDKAKEIAKRANVSPEEYERLRKEAE [R1C], which “folding stability dG” value is on record?
A: The value was 2.64 kcal/mol.

Q: Which “folding stability dG” value does the source give for GDEDEKEKIKEALKRGNEDKAKEIAKRANVSPEEYERLRKEAE [R1G] here?
A: Its value is 3.1 kcal/mol.

Variants of: B2
Assay: as above
Settings: PBS, room temperature

Q: Which “folding stability dG” value does the source give for EIHIRTNGEEQARKVYKMLAKRNYDVKIEQHNGQWVVYAS [T38Y] here?
A: The value was 1.75 kcal/mol.

Q: Which “folding stability dG” value does the source give for EIHIRTNGEEQARKVYKMLAKRNYDVKIEQHNGQWVVEAS [T38E] here?
A: The value was 0.543 kcal/mol.

Q: With EIHIRTNGEEQARKVYKMLAKRNYDVKIEQHNGQWVVGAS [T38G] as the variant, how does the “folding stability dG” value read?
A: Its value is 0.134 kcal/mol.

Q: Which “folding stability dG” value does the source give for EIHIRTNGEEQARKVYKMLAKRNYDVKIEQHNGQWVVDAS [T38D] here?
A: The value was 0.023 kcal/mol.

Q: For EIHIRTNGEEQARKVYKMLAKRNYDVKIEQHNGQWVVQAS [T38Q], which “folding stability dG” value is on record?
A: Its value is 0.832 kcal/mol.

Q: For EIHIRTNGEEQARKVYKMLAKRNYDVKIEQHNGQWVVAAS [T38A], which “folding stability dG” value is on record?
A: The value was 0.835 kcal/mol.

Q: For EIHIRTNGEEQARKVYKMLAKRNYDVKIEQHNGQWVVVAS [T38V], which “folding stability dG” value is on record?
A: The value was 2.25 kcal/mol.

Q: For EIHIRTNGEEQARKVYKMLAKRNYDVKIEQHNGQWVVMAS [T38M], which “folding stability dG” value is on record?
A: The value was 1.67 kcal/mol.

Q: With EIHIRTNGEEQARKVYKMLAKRNYDVKIEQHNGQWVVWAS [T38W] as the variant, how does the “folding stability dG” value read?
A: The value was 1.72 kcal/mol.

Q: For EIHIRTNGEEQARKVYKMLAKRNYDVKIEQHNGQWVVSAS [T38S], which “folding stability dG” value is on record?
A: Its value is 1.51 kcal/mol.

Q: For EIHIRTNGEEQARKVYKMLAKRNYDVKIEQHNGQWVVLAS [T38L], which “folding stability dG” value is on record?
A: Its value is 1.75 kcal/mol.

Q: For EIHIRTNGEEQARKVYKMLAKRNYDVKIEQHNGQWVVHAS [T38H], which “folding stability dG” value is on record?
A: The value was 1.64 kcal/mol.

Q: For EIHIRTNGEEQARKVYKMLAKRNYDVKIEQHNGQWVVFAS [T38F], which “folding stability dG” value is on record?
A: Its value is 1.72 kcal/mol.

Q: With EIHIRTNGEEQARKVYKMLAKRNYDVKIEQHNGQWVVIAS [T38I] as the variant, how does the “folding stability dG” value read?
A: Its value is 2.59 kcal/mol.

Q: Which “folding stability dG” value does the source give for EIHIRTNGEEQARKVYKMLAKRNYDVKIEQHNGQWVVKAS [T38K] here?
A: The value was 1.71 kcal/mol.

Q: With EIHIRTNGEEQARKVYKMLAKRNYDVKIEQHNGQWVVRAS [T38R] as the variant, how does the “folding stability dG” value read?
A: The value was 1.78 kcal/mol.

Q: With EIHIRTNGEEQARKVYKMLAKRNYDVKIEQHNGQWVVNAS [T38N] as the variant, how does the “folding stability dG” value read?
A: Its value is 0.617 kcal/mol.

Q: With EIHIRTNGEEQARKVYKMLAKRNYDVKIEQHNGQWMVTAS [V36M] as the variant, how does the “folding stability dG” value read?
A: The value was 1.58 kcal/mol.

Q: With EIHIRTNGEEQARKVYKMLAKRNYDVKIEQHNGQWNVTAS [V36N] as the variant, how does the “folding stability dG” value read?
A: Its value is 0.466 kcal/mol.

Q: Which “folding stability dG” value does the source give for EIHIRTNGEEQARKVYKMLAKRNYDVKIEQHNGQWLVTAS [V36L] here?
A: The value was 1.78 kcal/mol.

Q: With EIHIRTNGEEQARKVYKMLAKRNYDVKIEQHNGQWEVTAS [V36E] as the variant, how does the “folding stability dG” value read?
A: Its value is 0.934 kcal/mol.

Q: With EIHIRTNGEEQARKVYKMLAKRNYDVKIEQHNGQWQVTAS [V36Q] as the variant, how does the “folding stability dG” value read?
A: The value was 1.07 kcal/mol.

Q: With EIHIRTNGEEQARKVYKMLAKRNYDVKIEQHNGQWAVTAS [V36A] as the variant, how does the “folding stability dG” value read?
A: The value was 0.857 kcal/mol.

Q: With EIHIRTNGEEQARKVYKMLAKRNYDVKIEQHNGQWWVTAS [V36W] as the variant, how does the “folding stability dG” value read?
A: Its value is 2.3 kcal/mol.

Q: Which “folding stability dG” value does the source give for EIHIRTNGEEQARKVYKMLAKRNYDVKIEQHNGQWKVTAS [V36K] here?
A: The value was 0.658 kcal/mol.

Q: Which “folding stability dG” value does the source give for EIHIRTNGEEQARKVYKMLAKRNYDVKIEQHNGQWHVTAS [V36H] here?
A: Its value is 1.56 kcal/mol.

Q: For EIHIRTNGEEQARKVYKMLAKRNYDVKIEQHNGQWSVTAS [V36S], which “folding stability dG” value is on record?
A: The value was 1.23 kcal/mol.

Q: With EIHIRTNGEEQARKVYKMLAKRNYDVKIEQHNGQWGVTAS [V36G] as the variant, how does the “folding stability dG” value read?
A: Its value is 0.463 kcal/mol.

Q: Which “folding stability dG” value does the source give for EIHIRTNGEEQARKVYKMLAKRNYDVKIEQHNGQWRVTAS [V36R] here?
A: The value was 1.07 kcal/mol.

Q: Which “folding stability dG” value does the source give for EIHIRTNGEEQARKVYKMLAKRNYDVKIEQHNGQWDVTAS [V36D] here?
A: The value was 0.384 kcal/mol.

Q: With EIHIRTNGEEQARKVYKMLAKRNYDVKIEQHNGQWYVTAS [V36Y] as the variant, how does the “folding stability dG” value read?
A: Its value is 2.13 kcal/mol.

Q: With EIHIRTNGEEQARKVYKMLAKRNYDVKIEQHNGQWIVTAS [V36I] as the variant, how does the “folding stability dG” value read?
A: The value was 2.15 kcal/mol.

Q: Which “folding stability dG” value does the source give for EIHIRTNGEEQARKVYKMLAKRNYDVKIEQHNGQWTVTAS [V36T] here?
A: Its value is 1.39 kcal/mol.

Q: For EIHIRTNGEEQARKVYKMLAKRNYDVKIEQHNGQWFVTAS [V36F], which “folding stability dG” value is on record?
A: The value was 2.06 kcal/mol.

Q: Which “folding stability dG” value does the source give for EIHIRTNGEEQARKVYKMLAKRNYDVKIEQHNGQIVVTAS [W35I] here?
A: The value was -0.153 kcal/mol.

Q: Which “folding stability dG” value does the source give for EIHIRTNGEEQARKVYKMLAKRNYDVKIEQHNGQMVVTAS [W35M] here?
A: The value was -0.847 kcal/mol.

Q: With EIHIRTNGEEQARKVYKMLAKRNYDVKIEQHNGQLVVTAS [W35L] as the variant, how does the “folding stability dG” value read?
A: Its value is -0.221 kcal/mol.

Q: With EIHIRTNGEEQARKVYKMLAKRNYDVKIEQHNGQFVVTAS [W35F] as the variant, how does the “folding stability dG” value read?
A: Its value is 1.01 kcal/mol.

Q: For EIHIRTNGEEQARKVYKMLAKRNYDVKIEQHNGQYVVTAS [W35Y], which “folding stability dG” value is on record?
A: Its value is 0.915 kcal/mol.

Q: With EIHIRTNGEEQARKVYKMLAKRNYDVKIEQHNGQVVVTAS [W35V] as the variant, how does the “folding stability dG” value read?
A: The value was -0.525 kcal/mol.

Q: For EIHIRTNGEEQARKVYKMLAKRNYDVKIEQHNGQTVVTAS [W35T], which “folding stability dG” value is on record?
A: The value was -0.759 kcal/mol.

Q: For EIHIRTNGEEQARKVYKMLAKRNYDVKIEQHNMQWVVTAS [G33M], which “folding stability dG” value is on record?
A: The value was 0.969 kcal/mol.

Q: Which “folding stability dG” value does the source give for EIHIRTNGEEQARKVYKMLAKRNYDVKIEQHNKQWVVTAS [G33K] here?
A: The value was 0.996 kcal/mol.

Q: With EIHIRTNGEEQARKVYKMLAKRNYDVKIEQHNRQWVVTAS [G33R] as the variant, how does the “folding stability dG” value read?
A: Its value is 0.801 kcal/mol.

Q: With EIHIRTNGEEQARKVYKMLAKRNYDVKIEQHNHQWVVTAS [G33H] as the variant, how does the “folding stability dG” value read?
A: The value was 1.49 kcal/mol.

Q: For EIHIRTNGEEQARKVYKMLAKRNYDVKIEQHNYQWVVTAS [G33Y], which “folding stability dG” value is on record?
A: The value was 0.642 kcal/mol.

Q: For EIHIRTNGEEQARKVYKMLAKRNYDVKIEQHNQQWVVTAS [G33Q], which “folding stability dG” value is on record?
A: Its value is 0.937 kcal/mol.

Q: Which “folding stability dG” value does the source give for EIHIRTNGEEQARKVYKMLAKRNYDVKIEQHNSQWVVTAS [G33S] here?
A: Its value is 1.08 kcal/mol.

Q: With EIHIRTNGEEQARKVYKMLAKRNYDVKIEQHNIQWVVTAS [G33I] as the variant, how does the “folding stability dG” value read?
A: Its value is 0.069 kcal/mol.

Q: For EIHIRTNGEEQARKVYKMLAKRNYDVKIEQHNNQWVVTAS [G33N], which “folding stability dG” value is on record?
A: Its value is 1.24 kcal/mol.

Q: Which “folding stability dG” value does the source give for EIHIRTNGEEQARKVYKMLAKRNYDVKIEQHNDQWVVTAS [G33D] here?
A: Its value is 1.35 kcal/mol.

Q: Which “folding stability dG” value does the source give for EIHIRTNGEEQARKVYKMLAKRNYDVKIEQHNLQWVVTAS [G33L] here?
A: Its value is 0.714 kcal/mol.

Q: Which “folding stability dG” value does the source give for EIHIRTNGEEQARKVYKMLAKRNYDVKIEQHNTQWVVTAS [G33T] here?
A: The value was 0.841 kcal/mol.
